± gives the half width of the 95% confidence interval.

Data set [1] can be described thus: folding stability dG unfold from trypsin proteolysis; higher = more stable. The method in brief:
(§1)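 Designed mini-proteins with no cysteine and under 80 residues were kept only if AlphaFold2 dimer inter-PAE was above 15. In a PA-tagged cDNA display construct, they were digested with trypsin and chymotrypsin and then sequenced. K50 was inferred by Bayesian fitting of counts, and unfolding free energy was derived per protease or combined against a sequence-predicted unfolded-state K50 and a shared folded-state K50.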

The nature of data set [2]: folding stability dG unfold (combined trypsin and chymotrypsin); higher = more stable. The method in brief:
as §1

Data set [3] can be described thus: folding stability dG unfold from chymotrypsin proteolysis; higher = more stable. The essentials:
as §1

As to “SAGGSAGGAVDPALVSEETTSTSYYPDGTVVTTTTLKVPGKGTTVTLTTVTPLPPSSPSPSASLSAGGSAGG [r6_758_JUSTAS]”, the “folding stability dG unfold” value in data set [1] is 1.13 ± 0.043 kcal/mol; in data set [2] it was 0.761 ± 0.23 kcal/mol; in data set [3], 0.437 ± 0.077 kcal/mol.

Consider “SAGGSAGGDALKELIKNMPPGEPRKITIPIKYEDGRYYRIDIEIQMNPNNGEWQLDIDIEPYPPSAGGSAGG [r6_545_TrROS]”, for which the “folding stability dG unfold” value in data set [1] was found to be 0.881 ± 0.089 kcal/mol; in data set [2] it was 1.91 ± 0.25 kcal/mol; in data set [3] it was 2.46 ± 0.054 kcal/mol.

Consider “SAGGSAGGDEKAKEELKKKKPPKIELTVKVEVEVSEDGTVKVKAKVFGPDGKLIAEAEFTFKVKSAGGSAGG [r6_419_TrROS_Hall]”, for which the “folding stability dG unfold” value was found to be 1.67 ± 0.19 kcal/mol in data set [1], 2.58 ± 0.38 kcal/mol in data set [2] and 2.5 ± 0.12 kcal/mol in data set [3].

In the case of “SAGGSAGGDIEVRPVGVVPTPDGRLVRVEEVTFPETGRTLLVAVDLEPGRVYVFDPETGEWREESAGGSAGG [r6_114_TrMRF]”, the entries for the “folding stability dG unfold” value in data set [1], in data set [2] and in data set [3] were 0.502 ± 0.091 kcal/mol, 1.41 ± 0.075 kcal/mol and 1.76 ± 0.02 kcal/mol, respectively.

In the case of “SAGGSAGGDKAVIVDFNPIEPEAVIYFPKTGKAIKFKFDSLEELRDSIEPSGIPVEIVITPPELSAGGSAGG [r6_27_TrMRF]”, the results for the “folding stability dG unfold” value in data set [1], in data set [2] and in data set [3] were -0.138 ± 0.19 kcal/mol, 0.141 ± 0.19 kcal/mol and 0.196 ± 0.25 kcal/mol, respectively.

Consider “SAGGSAGGDPNDKPMKFELIETFTIPGNLNEAKDFLEDLLPPNWAINVEQEPGMITITIYKMKDSAGGSAGG [r6_953_TrROS]”, for which the “folding stability dG unfold” value in data set [1] was 1.78 ± 0.17 kcal/mol; in data set [2] it was 2.22 ± 0.2 kcal/mol; in data set [3], 2.23 ± 0.073 kcal/mol.

On to “SAGGSAGGDRIKIRFPDYRYEIEIPPGIESITTIQFHKDGWFTLTIPGNGQQIKIPIPPPDDDPSAGGSAGG [r6_370_TrROS]”, for which the results for the “folding stability dG unfold” value in data set [1], in data set [2] and in data set [3] were 1.23 ± 0.057 kcal/mol, 1.51 ± 0.24 kcal/mol and 1.73 ± 0.15 kcal/mol, respectively.

Turning to “SAGGSAGGDTLTIVVEGMSAEELAALLKELFPDAEVTVTEVGEPRLVTVTVTVKVETEFELPEESAGGSAGG [r6_607_TrROS_Hall]”, the “folding stability dG unfold” value in data set [1] was 2.13 ± 0.099 kcal/mol; in data set [2] it was 2.28 ± 0.1 kcal/mol; in data set [3], 2.36 ± 0.087 kcal/mol.

In the case of “SAGGSAGGEEEELTEEERRELERRRRRLEEERRRRRPPRPRLRLTLTVRLPDGSTVTLEVEIRLSAGGSAGG [r6_844_TrROS_Hall]”, the “folding stability dG unfold” value in data set [1] stood at 2.2 ± 0.061 kcal/mol; in data set [2] it was 3.16 ± 0.14 kcal/mol; in data set [3], 3.73 ± 0.056 kcal/mol.

Take “SAGGSAGGEEEYYEIEIVLPKEKAEEILEELKKKLPEGWEIVSVEVVEVDEDGYVRLRIVVKRTSAGGSAGG [r6_340_TrROS_Hall]”: the results for the “folding stability dG unfold” value in data set [1], in data set [2] and in data set [3] were 5.01 ± 0.53 kcal/mol, 4.52 ± 0.3 kcal/mol and 4.21 ± 0.14 kcal/mol, respectively.

With “SAGGSAGGEEIAKKLRDLAKKLGLDVEIKKIEVTKYPLPEGDENKEEKWVTTITITVNGKKITLSAGGSAGG [r6_686_TrROS_Hall]”, the results for the “folding stability dG unfold” value in data set [1], in data set [2] and in data set [3] were 2.22 ± 0.053 kcal/mol, 2.37 ± 0.081 kcal/mol and 2.53 ± 0.061 kcal/mol, respectively.

As for “SAGGSAGGEELAKRLKELFPNAKIVEIKYDKKTKKVTIKVELEPGMSEEQRERLRKLLEELLKKSAGGSAGG [r6_97_TrROS_Hall]”, the figures for the “folding stability dG unfold” value in data set [1], in data set [2] and in data set [3] were 3.13 ± 0.17 kcal/mol, 3.07 ± 0.15 kcal/mol and 2.85 ± 0.099 kcal/mol, respectively.

As to “SAGGSAGGEIKAKVPYEKYPKYYKVKVEIYDPNTKKKIEYEALFPKGTKISAEEIAKKIVKKIKSAGGSAGG [r6_233_TrMRF]”, the “folding stability dG unfold” value in data set [1] is 0.876 ± 0.086 kcal/mol; in data set [2] it was 1.26 ± 0.24 kcal/mol; in data set [3], 1.54 ± 0.085 kcal/mol.

Turning to “SAGGSAGGEIPADAEIEEFEFGGKPYFLVRFPDGTAALYERKGDKWELIATVPVPPDSRIFFKGSAGGSAGG [r6_475_TrMRF]”, the “folding stability dG unfold” value was 0.946 ± 0.037 kcal/mol in data set [1], 1.12 ± 0.041 kcal/mol in data set [2] and 1.19 ± 0.086 kcal/mol in data set [3].

With “SAGGSAGGEIRERLRELIEQLPEEELVVRIRRNGEEVELTFRTREDLEAALEANPEAEIEIVRRSAGGSAGG [r6_421_TrROS_Hall]”, the “folding stability dG unfold” value in data set [1] is 2.02 ± 0.023 kcal/mol; in data set [2], 3 ± 0.058 kcal/mol; in data set [3], 3.35 ± 0.037 kcal/mol.

Take “SAGGSAGGEISFDPETGKLTILAPSSISPDAIKKAIEEAGIPFKITSVSYIPDPKTLKVEYEISSAGGSAGG [r6_395_TrMRF]”: the “folding stability dG unfold” value in data set [1] worked out at 0.841 ± 0.025 kcal/mol; in data set [2], 0.719 ± 0.19 kcal/mol; in data set [3] it was 0.249 ± 0.29 kcal/mol.

With “SAGGSAGGEKTTVLVRVELYLEDTEVVELPDFVFTDLTEEQVLEEVRKLGLPDNVKVEIIPLPASAGGSAGG [r6_88_TrMRF]”, the “folding stability dG unfold” value is 2.53 ± 0.073 kcal/mol in data set [1], 2.47 ± 0.11 kcal/mol in data set [2] and 2.46 ± 0.11 kcal/mol in data set [3].

For “SAGGSAGGELELELTVRLPNGLEVRIRARVKFDEETNEWTITEIEIEIRPLPPPPVLDKDGKLVSAGGSAGG [r6_506_TrROS_Hall]”, the figures for the “folding stability dG unfold” value in data set [1], in data set [2] and in data set [3] were 3.24 ± 0.19 kcal/mol, 2.93 ± 0.47 kcal/mol and 3.04 ± 0.31 kcal/mol, respectively.

These data come from the supplement of paper PMC12764529.
